What all share (type): biochemical, uncultured organism
Substrate in data set [1]: O=C1Nc2ccccc2C1=O
Nature of the data set: amidohydrolase activity, Michaelis-Menten or Hill fit. Particulars: metal-dependent amidohydrolase activity. An excerpt: amidohydrolase activity, Michaelis-Menten or Hill fit on MGS0169

Substrate in data set [2]: CC(=O)Oc1ccc([N+](=O)[O-])cc1
Nature of the data set: spectrophotometric ester hydrolysis, Michaelis-Menten or Hill fit. Particulars: metal-dependent; 0.1 mM MnCl2 stated for the Figure 4 and 7 assays. The source says:
(§1) spectrophotometric ester hydrolysis, Michaelis-Menten or Hill fit on MGS0169

Substrate in data set [3]: CC(=O)Oc1cccc2ccccc12
The description is as above. Particulars: metal-dependent; 0.1 mM MnCl2 stated for the Figure 4 and 7 assays.
From the text: as §1

Substrate in data set [4]: CCC(=O)Oc1cccc2ccccc12
The description is as above. Particulars: metal-dependent; 0.1 mM MnCl2 stated for the Figure 4 and 7 assays.
From the text: as §1

A word on the Km: it is the substrate concentration at which the rate is half of its maximum. Broadly, the kcat is the maximal rate divided by the concentration of active sites. In general, kcat/Km refers to the turnover number divided by the Michaelis constant.

B1: MGS0169 (uncultured organism) (protein)
chain: MAHAEGPALHPHEKLNNWGKWGDDDQRGAANYITPERIVAAARLIQTGKTFSLAIPIDSNGPVFPPRLPPHHTMEITGADYVADPGASPFGKSPIRFADDYIYMPLQGSTQWDALSHGWYGESLYNGVPEAAIRSSGAGGATKLGIENVKTSFLGRGVLVDIVRFKGGSLPEGYTITRADLEGALAKQKSKLLPGDILVIRTGLVESWYDLDPVGRASFFLNPMTGIGSDTVPWIHEQRLAGVAADNIALERVPHERAPELALPVHGNLLRDLGVYIGEIWWLEELAKDCAQDGRYEFFLAAQPLYIPGAVGSPLNPIAVK
notes: N-terminal 6His tag (modified pET15b), E. coli BL21(DE3), Ni-NTA purified; predicted 37 kDa, tetramer; crystal construct 21-341 aa
In the case of B1, the Km in data set [1] turned out to be 19700 ± 4200 µM; in data set [2], 400 ± 290 µM; in data set [3], 490 ± 110 µM; in data set [4], 420 ± 120 µM. Moreover, the kcat in data set [1] is 1.9 ± 0.2 s⁻¹; in data set [2], 71.2 ± 1.7 s⁻¹; in data set [3], 14.9 ± 1.2 s⁻¹; in data set [4], 14.7 ± 1.4 s⁻¹. In addition, the kcat/Km is 100 M⁻¹ s⁻¹ in data set [1], 180000 M⁻¹ s⁻¹ in data set [2], 30000 M⁻¹ s⁻¹ in data set [3] and 40000 M⁻¹ s⁻¹ in data set [4].

The values above are taken from paper PMC5341072, “Activity screening of environmental metagenomic libraries reveals novel carboxylesterase families” (Scientific Reports, 2017).
